The target in assay [1] is T1, human TMPRSS6 (matriptase-2) expressed on HEK293T cells (HuTMPRSS6-(His)6) (UniProt Q8IU80 10-811).
T1 chain: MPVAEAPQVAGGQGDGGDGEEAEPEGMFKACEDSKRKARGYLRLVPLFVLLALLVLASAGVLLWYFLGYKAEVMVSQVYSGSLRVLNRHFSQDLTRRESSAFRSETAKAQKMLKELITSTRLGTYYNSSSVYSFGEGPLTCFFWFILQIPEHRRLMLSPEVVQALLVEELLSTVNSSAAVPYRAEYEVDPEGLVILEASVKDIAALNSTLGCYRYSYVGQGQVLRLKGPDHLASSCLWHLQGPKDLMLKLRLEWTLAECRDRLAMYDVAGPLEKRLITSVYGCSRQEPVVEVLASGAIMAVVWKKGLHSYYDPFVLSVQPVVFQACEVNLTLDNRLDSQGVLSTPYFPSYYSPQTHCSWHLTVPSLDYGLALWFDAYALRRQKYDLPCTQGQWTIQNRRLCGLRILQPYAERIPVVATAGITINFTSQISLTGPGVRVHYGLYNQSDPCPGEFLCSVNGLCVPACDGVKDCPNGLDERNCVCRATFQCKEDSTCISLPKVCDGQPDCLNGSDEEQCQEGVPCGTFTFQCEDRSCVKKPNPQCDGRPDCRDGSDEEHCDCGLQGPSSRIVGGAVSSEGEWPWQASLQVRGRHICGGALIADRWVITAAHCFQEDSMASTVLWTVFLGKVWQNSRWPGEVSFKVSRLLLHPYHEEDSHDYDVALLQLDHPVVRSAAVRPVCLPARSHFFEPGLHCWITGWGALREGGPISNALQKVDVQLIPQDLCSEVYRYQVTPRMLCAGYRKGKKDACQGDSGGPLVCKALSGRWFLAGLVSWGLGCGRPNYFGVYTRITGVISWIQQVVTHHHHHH
In words: cell surface ELISA.

In assay [2] the target is T1, human TMPRSS6 (matriptase-2) expressed …. The experiment in a line: FACS. For orientation: In flow cytometry, cells or beads pass a laser one at a time.
The target in assay [3] is T2, mouse TMPRSS6 expressed on HEK293T cells (MoTMPRSS6-(His)6) (UniProt Q9DBI0 1-811).
T2 chain: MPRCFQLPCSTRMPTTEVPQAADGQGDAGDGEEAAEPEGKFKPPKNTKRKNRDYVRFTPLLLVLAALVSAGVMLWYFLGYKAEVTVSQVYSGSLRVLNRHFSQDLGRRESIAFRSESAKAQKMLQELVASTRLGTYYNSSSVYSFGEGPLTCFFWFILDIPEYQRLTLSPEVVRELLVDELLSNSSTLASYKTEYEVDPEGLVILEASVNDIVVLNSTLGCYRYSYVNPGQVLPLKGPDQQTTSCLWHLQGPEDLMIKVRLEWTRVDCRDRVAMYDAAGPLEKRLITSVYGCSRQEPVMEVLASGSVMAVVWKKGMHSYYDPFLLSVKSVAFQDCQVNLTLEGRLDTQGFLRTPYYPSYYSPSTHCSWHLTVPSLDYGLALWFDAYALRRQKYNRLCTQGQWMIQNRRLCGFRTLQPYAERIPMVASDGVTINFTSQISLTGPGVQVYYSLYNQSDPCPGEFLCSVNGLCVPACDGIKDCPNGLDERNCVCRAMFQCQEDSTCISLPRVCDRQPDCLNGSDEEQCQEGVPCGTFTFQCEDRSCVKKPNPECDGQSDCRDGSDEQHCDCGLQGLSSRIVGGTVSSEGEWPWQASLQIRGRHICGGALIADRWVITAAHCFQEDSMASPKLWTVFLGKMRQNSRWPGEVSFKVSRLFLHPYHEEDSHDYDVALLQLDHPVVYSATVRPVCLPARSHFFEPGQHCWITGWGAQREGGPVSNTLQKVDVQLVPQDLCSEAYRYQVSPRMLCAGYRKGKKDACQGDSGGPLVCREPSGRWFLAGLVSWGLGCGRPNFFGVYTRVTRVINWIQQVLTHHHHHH
The experiment in a line: cell surface ELISA. In general terms: In an ELISA, binding on a coated surface is turned into a signal by an enzyme label.

Assay [4] has as its target T3, cynomolgus monkey TMPRSS6 expressed on HEK293T cells (CynoTMPRSS6-(His)6).
T3 chain: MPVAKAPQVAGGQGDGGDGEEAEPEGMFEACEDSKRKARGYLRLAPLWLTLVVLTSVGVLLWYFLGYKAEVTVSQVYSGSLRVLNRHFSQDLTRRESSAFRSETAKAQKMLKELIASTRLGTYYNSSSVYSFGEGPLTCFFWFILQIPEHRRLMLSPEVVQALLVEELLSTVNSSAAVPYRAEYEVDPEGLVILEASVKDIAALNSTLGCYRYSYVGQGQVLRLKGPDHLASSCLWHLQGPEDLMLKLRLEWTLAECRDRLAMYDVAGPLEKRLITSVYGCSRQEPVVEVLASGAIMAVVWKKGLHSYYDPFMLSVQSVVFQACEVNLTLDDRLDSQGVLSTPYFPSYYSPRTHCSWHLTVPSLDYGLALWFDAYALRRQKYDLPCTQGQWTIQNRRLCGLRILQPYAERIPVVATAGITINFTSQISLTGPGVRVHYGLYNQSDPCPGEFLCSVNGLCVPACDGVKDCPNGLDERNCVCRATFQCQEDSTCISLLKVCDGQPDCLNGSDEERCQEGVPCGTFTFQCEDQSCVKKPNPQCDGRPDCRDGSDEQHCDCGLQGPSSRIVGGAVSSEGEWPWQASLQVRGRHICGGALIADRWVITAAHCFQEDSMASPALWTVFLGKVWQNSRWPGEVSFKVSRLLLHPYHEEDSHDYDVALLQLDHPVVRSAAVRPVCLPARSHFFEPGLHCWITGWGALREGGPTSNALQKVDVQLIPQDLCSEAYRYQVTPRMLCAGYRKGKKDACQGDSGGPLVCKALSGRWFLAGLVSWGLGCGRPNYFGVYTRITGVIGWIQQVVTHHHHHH
In words: cell surface ELISA.

Assay [5] has as its target T3, cynomolgus monkey TMPRSS6 expressed on …. In words: cell surface ELISA.
Assay [6] concerns the target T2, mouse TMPRSS6 expressed on HEK293T …. The experiment in a line: cell surface ELISA.

Like-named read-outs stand apart in the source and are kept apart here.

B1: MWTx-003 anti-TMPRSS6 antibody (antibody, V domains shown)
VH: EVQLQQSGAELVKPGASVKLSCTASGFNIEDYYIHWVKERTEQGLEWIGRIDPEDGETTYAPQFQGKATIIPDTSSNTAYMQLSSLTSEDAAVYYCARSIYLDPMDYWGQGTSVTVSS
VL: DIVMTQSHKFMSTSVGDRVSITCKASQDVTTAVAWYQQKPGQSPKILIYWATTRHTGVPDRFTGSISGTTYILTISSVQAEDLALYYCQQHYSTPYTFGGGTKLEIKR
For B1, the EC50 (usually the concentration at which the effect is half-maximal) in assay [1] is 0.05 µg/mL; in assay [2], 0.2 µg/mL; in assay [3], 0.07 µg/mL; in assay [4] it was 0.09 µg/mL.

B2: hzMWTx-002Var anti-TMPRSS6 antibody (antibody, V domains shown)
VH: EVQLVQSGAEVKKPGASVKVSCKASGFNIKDYYIHWVRQATGQGLEWMGRIDPEDAESEYAPKFQGRVTITADTSTDTAYMELSSLRSEDTAVYYCTRGDSMMVTYFDYWGQGTLVTVSS
VL: DIQMTQSPSSLSASVGDRVTITCKASQDVSTAVAWYQQKPGKAPKLLIYWAFTRHTGVPSRFSGSGSGTDYALTISSLQPEDFATYYCQQHYRSPWTFGGGTKVEIKR
In assay [5], B2 returned an EC50 of 0.06 µg/mL.

B3: MWTx-001 anti-TMPRSS6 antibody (antibody, V domains shown)
VH: QVQLQQPGAELAKPGASVKMSCKASGYTFTSYWITWVKQRPGQDLEWIGNIYPGSGSTYYNEKFKSKATLTVDTSSRTAYMQLSSLTSADSAVYYCAPYDSDYAMDYWGQGTSVTVSS
VL: DIKMTQSPSSMYASLGERVTITCKASQDINNYLSWFQQKPGKSPKTLIYRANRLVDGVPSRVSGSGSGQDYSLTISSLEYEDVGIYFCLQYDEFPLTFGAGTKLELKR
As for B3, the EC50 in assay [1] was found to be 0.2 µg/mL; in assay [2], 1 µg/mL; in assay [3] it was 0.25 µg/mL; in assay [4], 0.1 µg/mL.

B4: hzMWTx-001Var anti-TMPRSS6 antibody (antibody, V domains shown)
VH: EVQLVQSGAEVKKPGASVKVSCKASGYTFTSYWITWVRQAPGQRLEWIGNIYPGSGSTYYNEKFKSKATITRDTSSRTAYMELSSLRSEDTAVYYCAPYDADYAMDYWGQGTLVTVSS
VL: DIQMTQSPSSLSASVGDRVTITCKASQDISNYLSWFQQKPGKAPKLLIYRANRLVEGVPSRFSGSGSGTDFTLTISSLQPEDFATYFCLQYDEFPLTFGGGTKVEIKR
As to B4, the EC50 stood at 0.03 µg/mL in assay [6] and 0.003 µg/mL in assay [5].

B5: MWTx-002 anti-TMPRSS6 antibody (antibody, V domains shown)
VH: EVQLQQSGAELVKPGASVKLSCTASGFNIKDYYIHWVKERTEQGLEWFGRIDPEDGESEYAPKFQGKATLTADTSSNTAYLQLSSLTSEDTAVYYCTRGDSMMVTYFDYWGQGTTLTVSS
VL: DIVMTQSHKFMSTSVGDRVSITCKASQDVSTAVAWYQQKPGQSPKLLIYWAFTRHTGVPDRFTSTGSGTDYALTISSVQAEDLALYYCQQHYRSPWTFGGGTKLEIKR
In the case of B5, the EC50 in assay [1] came out at 0.04 µg/mL; in assay [2], 0.2 µg/mL; in assay [4] it was 0.06 µg/mL.

B6: hzMWTx-003Var anti-TMPRSS6 antibody (antibody, V domains shown)
VH: QVQLVQSGAEVKKPGASVKVSCKASGFNIEDYYMHWVRQAPGQRLEWMGRIDPEDAETTYSPKFQGRVTIIPDTSANTAYMELSSLRSEDTAVYYCARSIYLDPMDYWGQGTLVTVSS
VL: DIQMTQSPKSLSASVGDRVTITCRASQDVTTALAWYQQKPGQSPKLLIYWATTRHSGVPSRFSGSGSGTDFTLTISSLQPEDFATYYCQQHYSTPYTFGQGTKLEIKR
As for B6, the EC50 in assay [6] came to 0.31 µg/mL; in assay [5] it was 0.03 µg/mL.

The values are drawn from US20230295345A1 (published 2023).
